Experimental data as given in article PMC9913320, “Development of ^99mTc-Hynic-Adh-1 Molecular Probe Specifically Targeting N-Cadherin and Its Preliminary Experimental Study in Monitoring Drug Resistance of Non-Small-Cell Lung Cancer” (Cancers, 2023).

How the values were obtained:
[1] = Pharmacokinetic studies (blood radioactivity, PK solver); format: in vivo; settings: C57/BL6 mice, i.v.
Method: For the pharmacokinetic studies, four C57/BL6 mice weighing 18–20 g were administrated with ^99mTc-HYNIC-ADH1 (0.1 mL, 0.74 MBq) by i.v. injection into the tail vein. An array of blood samples was acquired and weighed by pinching the tail with a syringe at 2, 5, 15, 20, 30, 45, 60, 90, 120 and 240 min post-injection (p.i.). Radioactivity was calculated as the % of dose per g of tissue per body weight (%ID/g) expressed over time. […] Pharmacokinetics was assayed using PK solver 2.0.

[2] = Biodistribution in xenograft-bearing nude mice, organs; format: in vivo, BALB/c nude mice; settings: mouse, iv, 0.74 MBq, i.v.; for tissue uptake at 0.5 h: 30 min; for tissue uptake at 1 h: 60 min; for tissue uptake at 2 h: 120 min; for tissue uptake at 4 h: 240 min
Method: (§1) All animal research was performed in accordance with the Zhejiang University Institutional Animal Care and Use Committee guidelines. PC9 and PC9GR cells (2 × 10^6 cells per mice) were injected subcutaneously into the flanks of 2- to 4-week old BALB/c nude mice (left: PC9GR, right: PC9). The cells were allowed to grow 3–5 weeks until tumors were 1 ± 0.5 cm^3 in volume. Normal C57/BL6 mice (aged 6 to 8 wks old) were obtained from the Animal Center of the First Affiliated Hospital of Zhejiang University. All animals were maintained with free access to food and water and used a standard diet, bedding and environment.
(§2) The radiotracer (0.1 mL, 0.74 MBq) was injected intravenously into normal C57/BL6 mice and xenograft models as previously described (n = 4 per group per time) via the tail vein. After different time intervals (30, 60, 120 and 240 min), the mice were sacrificed by cervical dislocation, and their blood, tumors and major organs (brain, heart, lung, liver, spleen, kidney, stomach, intestine, muscle, bone and skin) were harvested and weighed. The radioactivity of each sample was measured with a γ-counter. Values are shown as the percentage of the injected dose per gram (%ID/g), which corrected for background and decay to maintain consistency.

[3] = Biodistribution in xenograft-bearing nude mice, PC9 tumor; format: in vivo, BALB/c nude mice; settings: mouse, tumor (PC9), iv, 0.74 MBq, xenograft-bearing nude mice, i.v., read-out: Biodistribution, T(PC9)
Method: as §1, §2

PC9 tumor [4] = test: as above; format: in vivo, BALB/c nude mice; settings: biodistribution, tumor-bearing mice
Method: as §1, §2

[5] = Partition coefficient (Log D), 1-octanol/PBS; format: physicochemical; settings: 1-octanol and PBS (pH 7.4), n = 3
Method: Partition coefficients (Log D) of ^99mTc-HYNIC-ADH-1 were measured through the assessment of the distribution of radioactivity in 1-octanol and phosphate buffer in a 2 mL centrifuge tube. A 10 µL ^99mTc-HYNIC-ADH-1 solution was added to a vial containing 1 mL each of 1-octanol and PBS (pH 7.4). After vortexing for 10 min, the vial was centrifuged for 10 min to ensure complete separation of the layers. Then, 10 µL of each layer was pipetted into separate test tubes, and the counts were measured using a γ counter. Partition coefficients are shown as the log counts in 1-octanol vs. PBS layers (n = 3).

PC9GR tumor = test: Small animal SPECT/CT imaging, ROI analysis; format: in vivo, BALB/c nude mice; settings: 1 h
Method: as §1
(§3) Xenograft models were imaged using a nanoScan SPECT/CT (Mediso, Hungary) in vivo imaging system and anesthetized with 2% isoflurane before imaging. Mice in the non-blocked group (n = 4) were injected via tail vein with 3.7 MBq (100 μL) of radiotracer and imaged at different time points (1, 2 and 6 h). In the blocked group, 100 μL excess ADH-1 was injected through the tail vein 30 min in advance, and then the same volume and dose of imaging agent were injected for 1 h after imaging.
(§4) Three-dimensional ROIs were delineated along the edge of the tumor using SPECT/CT analysis software. Spherical ROIs of 0.03 cm^3 were delineated in organs or tissues (liver and muscle). The radiation intensity of each region was measured, and the tumor/non-tumor ratio was calculated.

PC9 tumor [6] = test: Small animal SPECT/CT imaging, ROI analysis; format: in vivo, BALB/c nude mice; settings: non-blocked, 1 h
Method: as §1, §3, §4

[7] = blood, read-out: Biodistribution, Blood
[8] = bone, read-out: Biodistribution, Bone
[9] = brain, read-out: Biodistribution, Brain
[10] = heart, read-out: Biodistribution, Heart
[11] = intestine, read-out: Biodistribution, Intestine
[12] = kidney, read-out: Biodistribution, Kidney
[13] = liver, read-out: Biodistribution, Liver
[14] = lung, read-out: Biodistribution, Lung
[15] = muscle, read-out: Biodistribution, Muscle
[16] = skin, read-out: Biodistribution, Skin
[17] = spleen, read-out: Biodistribution, Spleen
[18] = stomach, read-out: Biodistribution, Stomach

With `CC(=O)N[C@H]1CSSC[C@@H](C(=O)NCCNC(=O)c2ccc(NN)nc2)NC(=O)[C@H](C(C)C)NC(=O)[C@H](C)NC(=O)[C@H](Cc2c[nH]cn2)NC1=O` [^99mTc-HYNIC-ADH-1, metal not drawn] the “AUC(0–t)” value [1] was 0.0593 µg·min/L, the “AUC(0–∞)” value [1] was 0.0595 µg·min/L and the K10 [1] was 0.0815 min⁻¹. It also gave a K12 [1] of 0.1511 min⁻¹, a K21 [1] of 0.0794 min⁻¹ and a V1 [1] of 68.753 L/kg. For the same molecule, the T1/2α ([1]; two-compartment model) was 2.3925 min, the half-life ([1]; mouse, blood, iv, 0.74 MBq, two-compartment model, read-out: T1/2β) was 31 min and the tissue uptake at 0.5 h [2, 7] was 1.35 ± 0.18 %ID/g. For the same molecule, the tissue uptake at 1 h [2, 7] was 0.84 ± 0.03 %ID/g, the tissue uptake at 2 h [2, 7] was 0.49 ± 0.05 %ID/g and the tissue uptake at 4 h [2, 7] was 0.48 ± 0.2 %ID/g. It also gave a tissue uptake at 0.5 h [2, 8] of 0.46 ± 0.03 %ID/g, a tissue uptake at 1 h [2, 8] of 0.37 ± 0.04 %ID/g and a tissue uptake at 2 h [2, 8] of 0.26 ± 0.04 %ID/g. The tissue uptake at 4 h [2, 8] was 0.21 ± 0.01 %ID/g, the tissue uptake at 0.5 h [2, 9] was 0.05 ± 0.01 %ID/g and the tissue uptake at 1 h [2, 9] was 0.07 ± 0.01 %ID/g. The tissue uptake at 2 h [2, 9] was 0.05 %ID/g, the tissue uptake at 4 h [2, 9] was 0.03 %ID/g and the tissue uptake at 0.5 h [2, 10] was 0.57 ± 0.03 %ID/g. It also gave a tissue uptake at 1 h [2, 10] of 0.42 ± 0.08 %ID/g, a tissue uptake at 2 h [2, 10] of 0.28 ± 0.01 %ID/g and a tissue uptake at 4 h [2, 10] of 0.23 ± 0.01 %ID/g. The tissue uptake at 0.5 h [2, 11] was 0.43 ± 0.03 %ID/g, the tissue uptake at 1 h [2, 11] was 1.38 ± 1.01 %ID/g and the tissue uptake at 2 h [2, 11] was 0.58 ± 0.12 %ID/g. It also gave a tissue uptake at 4 h [2, 11] of 0.88 ± 0.38 %ID/g, a tissue uptake at 0.5 h [2, 12] of 3.77 ± 1 %ID/g and a tissue uptake at 1 h [2, 12] of 2.85 ± 0.54 %ID/g. For the same molecule, the tissue uptake at 2 h [2, 12] was 3.13 ± 0.7 %ID/g, the tissue uptake at 4 h [2, 12] was 3.13 ± 0.54 %ID/g and the tissue uptake at 0.5 h [2, 13] was 0.76 ± 0.06 %ID/g. The tissue uptake at 1 h [2, 13] was 0.66 ± 0.06 %ID/g, the tissue uptake at 2 h [2, 13] was 0.59 ± 0.01 %ID/g and the tissue uptake at 4 h [2, 13] was 0.55 ± 0.1 %ID/g. For the same molecule, the tissue uptake at 0.5 h [2, 14] was 1.5 ± 0.04 %ID/g, the tissue uptake at 1 h [2, 14] was 1.2 ± 0.16 %ID/g and the tissue uptake at 2 h [2, 14] was 0.68 ± 0.11 %ID/g. The tissue uptake at 4 h [2, 14] was 0.56 ± 0.08 %ID/g, the tissue uptake at 0.5 h [2, 15] was 0.5 ± 0.47 %ID/g and the tissue uptake at 1 h [2, 15] was 0.47 ± 0.1 %ID/g. The tissue uptake at 2 h [2, 15] was 0.24 ± 0.01 %ID/g, the tissue uptake at 4 h [2, 15] was 0.25 ± 0.04 %ID/g and the tissue uptake at 0.5 h [2, 16] was 1.22 ± 0.05 %ID/g. For the same molecule, the tissue uptake at 1 h [2, 16] was 1.33 ± 0.33 %ID/g, the tissue uptake at 2 h [2, 16] was 1.21 ± 0.44 %ID/g and the tissue uptake at 4 h [2, 16] was 1.73 ± 0.08 %ID/g. The tissue uptake at 0.5 h [2, 17] was 0.35 ± 0.03 %ID/g, the tissue uptake at 1 h [2, 17] was 0.27 ± 0.02 %ID/g and the tissue uptake at 2 h [2, 17] was 0.22 ± 0.02 %ID/g. For the same molecule, the tissue uptake at 4 h [2, 17] was 0.2 ± 0.01 %ID/g, the tissue uptake at 0.5 h [2, 18] was 1.16 ± 0.18 %ID/g and the tissue uptake at 1 h [2, 18] was 0.78 ± 0.32 %ID/g. For the same molecule, the tissue uptake at 2 h [2, 18] was 0.73 ± 0.31 %ID/g, the tissue uptake at 4 h [2, 18] was 0.69 ± 0.29 %ID/g and the tissue uptake at 0.5 h ([3]; 30 min) was 0.99 ± 0.15 %ID/g. For the same molecule, the tissue uptake at 1 h ([3]; 60 min) was 0.91 ± 0.03 %ID/g, the tissue uptake at 2 h ([3]; 120 min) was 0.79 ± 0.06 %ID/g and the tissue uptake at 4 h ([3]; 240 min) was 0.64 ± 0.16 %ID/g. The “T/NT PC9/Kidney” value (PC9 tumor [4]; 30 min) was 0.27 ± 0.06, the “T/NT PC9/Liver” value (PC9 tumor [4]; 30 min) was 1.36 ± 0.15 and the “T/NT PC9/Muscle” value (PC9 tumor [4]; 30 min) was 1.97 ± 0.21. For the same molecule, the “T/NT PC9/Kidney” value (PC9 tumor [4]; 1 h) was 0.27 ± 0.03, the “T/NT PC9/Liver” value (PC9 tumor [4]; 1 h) was 1.58 ± 0.06 and the “T/NT PC9/Muscle” value (PC9 tumor [4]; 1 h) was 2.59 ± 0.34. The “T/NT PC9/Kidney” value (PC9 tumor [4]; 2 h) was 0.26 ± 0.06, the “T/NT PC9/Liver” value (PC9 tumor [4]; 2 h) was 1.41 ± 0.21 and the “T/NT PC9/Muscle” value (PC9 tumor [4]; 2 h) was 3.36 ± 0.08. For the same molecule, the “T/NT PC9/Kidney” value (PC9 tumor [4]; 4 h) was 0.25 ± 0.02, the “T/NT PC9/Liver” value (PC9 tumor [4]; 4 h) was 1.01 ± 0.31 and the “T/NT PC9/Muscle” value (PC9 tumor [4]; 4 h) was 2.78 ± 0.28. The logD [5] was -2.45 ± 0.1, the “T/N (tumor to adjacent muscle radioactivity intensity, SPECT/CT ROI)” value (PC9GR tumor; blocked group (excess unlabeled ADH-1 30 min in advance)) was 3.69 ± 0.50 and the “T/N (tumor to adjacent muscle radioactivity intensity, SPECT/CT ROI)” value (PC9GR tumor; non-blocked) was 7.73 ± 0.54. For the same molecule, the “T/N (tumor to adjacent muscle radioactivity intensity, SPECT/CT ROI)” value (PC9 tumor [6]) was 3.66 ± 0.78.
